Holding throughout (conditions): one partner purified
Test [1] has as its target T1, human programmed cell death protein 1 C93S (aa 24-167) (Homo sapiens, UniProt Q15116, C93S).
T1 construct: residues of the TEV site may be left after cleavage; also called hPD-1; human PD-1; source: Expi293F, transfected, purified (Protein A, TEV cleavage of Fc, Protein A + Ni-Sepharose, SEC; monomer fractions)
The test is described as follows: SPR; BreviA on Carterra LSA: Fab from ammonium sulfate precipitate of Brevibacillus supernatant immobilised on NiHC200M sensor; hPD-1 (1-1024 nM) or mPD-1-Fc (4-1024 nM) as analyte, fourfold dilution series, no regeneration; HBS-EP pH 7.4, 25 °C; medians of spots. On the technique in general: Surface plasmon resonance follows binding to a sensor surface in real time, without labels.

The target of test [2] is T2, mouse programmed cell death protein 1 C60S (aa 25-167) Fc fusion protein (Mus musculus, UniProt Q02242, stabilised).
T2 construct: the Fc was not cleaved; also called mPD-1-Fc; mPD-1 Fc fusion protein; source: Expi293F, transfected, purified (Protein A, SEC; dimeric fraction)
The test is described as above.

The target of test [3] is T3, mouse programmed cell death protein 1 Fc fusion protein (mPD-1-Fc), mPD-1 C60S (aa 25-167) (Mus musculus, UniProt Q02242, stabilised).
T3 construct: not cleaved; source: Expi293F, purified (Protein A, SEC; dimeric fraction); not shown: Fc (human), C-terminal, kept
The test is described as follows: SPR; Carterra LSA; Fab from the ammonium sulfate precipitate of the culture supernatant immobilised on a NiHC200M chip; hPD-1 (1-1024 nM) or mPD-1-Fc (4-1024 nM) as analyte, fourfold dilution series, no regeneration; HBS-EP pH 7.4, 25 °C; medians over the spots of a construct, KD = koff/kon. The essentials:
(§1)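 Human PD-1 (1–1024 nM) or mouse PD-1-Fc (4–1024 nM), in fourfold series, was flowed without regeneration over Fabs captured in duplicate on a NiHC200M chip (Carterra LSA, 25 °C), using 10 min association and 5 min dissociation. The Fabs had been recovered from Brevibacillus culture supernatants by ammonium sulfate precipitation and redissolved in HBS-EP. For binding constants, KD was defined as koff/kon from per-construct medians, with rates fitted by the kdka model under slow- or fast-dissociation settings (best fit) and unconfirmed binders set to kon 10^3 […] and koff 10^−2 s^−1.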

Test [4] has as its target T4, human programmed cell death protein 1 (hPD-1) C93S (aa 24-167) (Homo sapiens, UniProt Q15116, C93S).
T4 construct: made as a fusion with a TEV site and human Fc; the Fc was cut off with TEV protease; source: Expi293F, purified (Protein A, TEV cleavage of Fc, SEC; monomer fractions); not shown: Fc (human), C-terminal, cleaved
Described as above. An outline of the steps:
as §1

The values below come from PMC10663500, “High-throughput analysis system of interaction kinetics for data-driven antibody design” (Scientific Reports, 2023).

As a reminder, the koff is the first-order rate constant of dissociation. By Kd is commonly meant the constant that tells how readily two partners part at equilibrium. Higher therefore signals weaker binding. Broadly, the kon is the second-order rate constant of association. Lower therefore signals slower complex formation.

T4 sequence (Q15116 24-167 C93S): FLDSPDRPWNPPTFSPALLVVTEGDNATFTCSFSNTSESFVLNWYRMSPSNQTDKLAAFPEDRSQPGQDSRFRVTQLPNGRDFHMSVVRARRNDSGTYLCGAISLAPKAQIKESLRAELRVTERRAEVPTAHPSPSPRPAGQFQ
T1 sequence (Q15116 24-167 C93S): as above

B1: toripalimab Fab (wild-type) (Fab, V domains shown)
VH: QGQLVQSGAEVKKPGASVKVSCKASGYTFTDYEMHWVRQAPIHGLEWIGVIESETGGTAYNQKFKGRVTITADKSTSTAYMELSSLRSEDTAVYYCAREGITTVATTYYWYFDVWGQGTTVTVSS
VL: DVVMTQSPLSLPVTLGQPASISCRSSQSIVHSNGNTYLEWYLQKPGQSPQLLIYKVSNRFSGVPDRFSGSGSGTDFTLKISRVEAEDVGVYYCFQGSHVPLTFGQGTKLEIK
notes: toripalimab Fab heavy chain (VH-CH1); toripalimab Fab light chain (VL-CL); Residue numbers count consecutively from residue 1 of each chain; also called anti-hPD-1 antibody toripalimab; source: Brevibacillus, secreted into culture supernatant, ammonium sulfate precipitate (not further purified); not shown: 6xHis, C-terminal, kept; 6xHN, C-terminal, kept
The molecule B1 showed a koff in test [1] of less than 1e-05 s⁻¹.

B2: toripalimab Fab L.V99G (Fab, V domains shown)
VH: QGQLVQSGAEVKKPGASVKVSCKASGYTFTDYEMHWVRQAPIHGLEWIGVIESETGGTAYNQKFKGRVTITADKSTSTAYMELSSLRSEDTAVYYCAREGITTVATTYYWYFDVWGQGTTVTVSS
VL: DVVMTQSPLSLPVTLGQPASISCRSSQSIVHSNGNTYLEWYLQKPGQSPQLLIYKVSNRFSGVPDRFSGSGSGTDFTLKISRVEAEDVGVYYCFQGSHGPLTFGQGTKLEIK
notes: as the heavy chain of m1; as the light chain of m1, with the stated change; source: Brevibacillus, secreted into culture supernatant, ammonium sulfate precipitate (not further purified); not shown: 6xHis, C-terminal, kept; 6xHN, C-terminal, kept
Turning to B2, the “fold increase in affinity against the wild type” value in test [2] was more than 100 fold.

B3: toripalimab Fab L.T102Y (Fab, V domains shown)
VH: QGQLVQSGAEVKKPGASVKVSCKASGYTFTDYEMHWVRQAPIHGLEWIGVIESETGGTAYNQKFKGRVTITADKSTSTAYMELSSLRSEDTAVYYCAREGITTVATTYYWYFDVWGQGTTVTVSS
VL: DVVMTQSPLSLPVTLGQPASISCRSSQSIVHSNGNTYLEWYLQKPGQSPQLLIYKVSNRFSGVPDRFSGSGSGTDFTLKISRVEAEDVGVYYCFQGSHVPLYFGQGTKLEIK
notes: as the heavy chain of Sm3; light chain of Sm3 with this change; numbers count from the chain's first residue; source: Brevibacillus, culture supernatant (ammonium sulfate precipitate); not shown: 6xHis, C-terminal, kept; 6xHN, C-terminal, kept
Consider B3, for which, in test [3], the affinity, expressed as Kd, was 78.4 nM; the koff turned out to be 0.00282 s⁻¹; the kon came to 36000 M⁻¹ s⁻¹. In test [4], this molecule returned a Kd of less than 0.441 nM, a koff of less than 1e-05 s⁻¹ and a kon of 22700 M⁻¹ s⁻¹.

B4: toripalimab Fab L.T102A (Fab, V domains shown)
VH: QGQLVQSGAEVKKPGASVKVSCKASGYTFTDYEMHWVRQAPIHGLEWIGVIESETGGTAYNQKFKGRVTITADKSTSTAYMELSSLRSEDTAVYYCAREGITTVATTYYWYFDVWGQGTTVTVSS
VL: DVVMTQSPLSLPVTLGQPASISCRSSQSIVHSNGNTYLEWYLQKPGQSPQLLIYKVSNRFSGVPDRFSGSGSGTDFTLKISRVEAEDVGVYYCFQGSHVPLAFGQGTKLEIK
notes: as for B3
In test [3], B4 came in with an equilibrium dissociation constant (Kd) of 115 nM, a koff of 0.00395 s⁻¹ and an association rate constant (kon) of 34200 M⁻¹ s⁻¹. In test [4], this molecule displayed a Kd of less than 0.809 nM, a koff of less than 1e-05 s⁻¹ and a kon of 12400 M⁻¹ s⁻¹.

B5: toripalimab Fab L.P100H (Fab, V domains shown)
VH: QGQLVQSGAEVKKPGASVKVSCKASGYTFTDYEMHWVRQAPIHGLEWIGVIESETGGTAYNQKFKGRVTITADKSTSTAYMELSSLRSEDTAVYYCAREGITTVATTYYWYFDVWGQGTTVTVSS
VL: DVVMTQSPLSLPVTLGQPASISCRSSQSIVHSNGNTYLEWYLQKPGQSPQLLIYKVSNRFSGVPDRFSGSGSGTDFTLKISRVEAEDVGVYYCFQGSHVHLTFGQGTKLEIK
notes: as for B2
Take B5: in test [2], the “fold increase in affinity against the wild type” value was more than 100 fold.
